Data published in patent US20190351049A1 (Regeneron, published 2019).
Changes are numbered by the printed parent chain.

B1: H1H15253P2 (antibody, V domains shown)
VH: EVQLVESGGGLVQPGGSLRLSCVVSGFTSRNYAMSWVRQAPGKGLEWVSAISGSGGSTYYADSVKGRFTISRDNPKNTLYLQMNSLRAEDTALYYCAEDPGTSFDYWGQGTLVTVSS
VL: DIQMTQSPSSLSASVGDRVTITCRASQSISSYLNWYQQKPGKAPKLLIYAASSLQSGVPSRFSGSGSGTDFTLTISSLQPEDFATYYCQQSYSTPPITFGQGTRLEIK
B2: H1H15237P2 (antibody, V domains shown)
VH: EVQLVESGGGLVQPGGSLRLSCAASGFTSNSYPMSWVRQAPGKGLEWVSGISGRGGNTYYADSVKGRFTISRDNSKNTLYLQMNSLRVEDTAVYYCAETGTAFDYWGQGTLVTVSS
VL: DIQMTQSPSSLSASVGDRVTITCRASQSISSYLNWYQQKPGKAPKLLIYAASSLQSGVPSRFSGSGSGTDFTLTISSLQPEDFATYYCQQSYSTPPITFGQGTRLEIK
B3: H1M15277N (antibody, V domains shown)
V domain 1: EVQLLESGGGLVQPGGSLRLSCAASGFTFSSYAMSWVRQAPGKGLEWVSAISGRGGNTYYADSVKGRFTISRDNSKNTLFLQMNTLRAEDTAVYYCAKDRGFGFFDIWGRGTLATVSS
V domain 2: not shown
B4: H1H15233P2 (antibody, V domains shown)
VH: EVQLVESGGGLVQPGGSLRLSCAASGFSFSSYGMNWVRQAPGKGLEWVSAISGRGGNTYSADSVKGRFTISRDNSKNTLFLQMNGLRAEDSAFYYCAKVGTYSSSSPFDYWGQGTLVTVSS
VL: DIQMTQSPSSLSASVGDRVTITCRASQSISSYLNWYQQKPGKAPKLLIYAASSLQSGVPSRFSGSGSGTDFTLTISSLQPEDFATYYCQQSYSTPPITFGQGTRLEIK
B5: H1H15208P (antibody, V domains shown)
VH: EVQLVESGGDLVQPGGSLRLSCTASGFTFSNYEMNWVRQAPEKGLDWVSFISSSGGAIYYADSVKGRFTISRDNAKNSLYLQMNSLRAEDSAIYFCARSDSGGNSRYWGQGTLVTVSS
VL: DIQMTQSPSSVSASVGDRVTVTCRASQDISNWLVWYQQKPGKAPKFLIYAASSLQSGVPSRFSGSGSGTDFTLTISSLQPEDFATYYCQQANSFPPTFGGGTKVEIK
B6: H1M15280N (antibody, V domains shown)
VH: EVQLLESGGGLVQPGGSLRLSCAASGFTFSSYAMSWVRQAPGKGLEWVSAISGSGSSTYYADSVKGRFTISRDNSKNTLFLQMNSLRAEDTAVYYCAEGGDVDFDYWGQGTLVTVSS
VL: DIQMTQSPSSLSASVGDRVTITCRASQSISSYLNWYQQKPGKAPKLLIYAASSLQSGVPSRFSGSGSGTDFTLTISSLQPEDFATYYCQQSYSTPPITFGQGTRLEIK
B7: H1H15249P2 (antibody, V domains shown)
VH: QLQLQESGPGLVKPSETLSLTCTVSGGSISNNNYYWGWIRQPPGKGLDWIGSIYYSGNTYYNPSLKSRVTISVDTSKNQFSLKMSSVTATDTALYYCARQGADHNWVDPWGQGTLVTVSS
VL: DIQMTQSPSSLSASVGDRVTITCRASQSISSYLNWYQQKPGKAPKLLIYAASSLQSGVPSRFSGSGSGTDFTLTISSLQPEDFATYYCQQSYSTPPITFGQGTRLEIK
B8: H1H15188P (antibody, V domains shown)
VH: QVQLVQSGAEVKKPGSSVKVSCKASGGSFSVYAISWVRQAPGQGLEWMGGIIPIFGTANYAQKFQDRFTITTDESTSTAYMELSSLRSEDTAMYYCAREGDIVVLPAGKGGMDVWGQGTTVTVSS
VL: DIVMTQSPLSLPVTPGEPASISCRSSQSLLHGNGYNYLDWYLQKPGQSPQLLIYLVSHRASGVPDRFSGSGSGTDFTLKISRVEAEDVGVYYCMQALQSPWTFGQGTKVEIK
B9: H1H15228P2 (antibody, V domains shown)
VH: EVQLVESGGGLVQPGGSLRLSCAVFGFTFSGYAMSWVRQAPGKGLEWVSAISGGGGSTYYTDSVKGRFTISRDNSKNTLYLQMNSLRAEDTAVYYCASYWNNGMDVWGQGTTVTVSS
VL: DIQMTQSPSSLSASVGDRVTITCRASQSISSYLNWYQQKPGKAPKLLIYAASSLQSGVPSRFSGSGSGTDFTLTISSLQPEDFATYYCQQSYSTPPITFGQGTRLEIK
B10: H2aM15278N (antibody, V domains shown)
VH: QVQLVQSGAEVKKPGASVKVSCKASGYTFTSHGISWVRQAPGQGFEWMGWIGTYNSNTDYAQNFQGRVTMTTDTSTSTAYMELRNLRSDDTAVYYCARERGPYYGMDVWGQGTTVTVSS
VL: EIVLAQSPGTLSLSPGERATLSCRASQSVNSNYLAWYQQKPGQAPRLLIYGASSRATGIPDRFSGSGSGTDFTLTISRLEPEDFAVYYCQQYGNSLTFGPGTKVDFK
B11: H1H15177P (antibody, V domains shown)
VH: EVQLVESGGGLVQPGGSLRLSCSASGFTFSSYDMSWVRQAPGKGLEWVSAIRGSGHTTYYADSVKGRFTISRDNSKNTLYLEMNSLRAEDTAVYYCVKDGSIVGFDPWGQGTLVTVSS
VL: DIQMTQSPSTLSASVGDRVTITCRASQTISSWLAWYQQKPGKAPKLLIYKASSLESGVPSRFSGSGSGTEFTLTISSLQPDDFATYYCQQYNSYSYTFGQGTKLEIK
B12: H2aM15281N (antibody, V domains shown)
VH: QVQLVQSGAEVKKPGSSVKVSCKASKDTFSSYAISWVRQAPGQGLEWMGGIIPFFGTTTYEQKFQGRVTITTDESTRTAYMELSSLRSEDSAVYYCARDRPCISSAGTRYHYCVMDVWGQGTTVTVSS
VL: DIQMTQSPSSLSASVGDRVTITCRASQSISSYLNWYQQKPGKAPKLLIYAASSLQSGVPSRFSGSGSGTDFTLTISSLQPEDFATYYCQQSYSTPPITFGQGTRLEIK
B13: H2aM15272N (antibody, V domains shown)
VH: B12 VH with Q3R, K26G, G56V, E61A, K63N
VL: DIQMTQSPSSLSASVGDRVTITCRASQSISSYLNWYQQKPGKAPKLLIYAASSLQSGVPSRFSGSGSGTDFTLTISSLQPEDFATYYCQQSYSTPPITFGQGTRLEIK
B14: H2aM15270N (antibody, V domains shown)
VH: EVQLLESGGGLEQPGGSLRLSCAASGFTFSSYAMIWVRQAPGKGLEWVSTISGSGVNTYYADSVKGRFTISRDNSKNTLHLQMNSLRAEDTAVYHCAKEGLDCANGVCYNYYGMDVWGQGTTVTVSS
VL: DIQMTQSPSSLSASVGDRVTITCRASQSINSFLNWYHQKPGKAPKFLIYSASNLQSGVPSRFSGSGSGTDFTLTISSLQPEDFSTYYCQQSYSIPLTFGGGTKVEIK
B15: H1H15203P (antibody, V domains shown)
VH: EVQLVESGGDLVQPGGSLRVSCAASGFTFSNYDMYWVRQAPGKGLEWVSVISGIGATTYYADSVKGRFTISRDNSKNTVFLQMNSLRAEDTAVYYCVKGGPIVATDYWGQGTLVTVSS
VL: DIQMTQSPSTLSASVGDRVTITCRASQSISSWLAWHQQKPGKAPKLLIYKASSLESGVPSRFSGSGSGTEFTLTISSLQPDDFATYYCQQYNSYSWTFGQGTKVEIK
B16: H1H15211P (antibody, V domains shown)
VH: EVQLVESGGGLVQPGGSLRLSCVVSGFTFSNYDMSWVRQAPGRGLEWVSAIRGSGFNTYYADSVKGRFTISRDNSKNTLYLQMNSLRAEDTAVYYCAKDGSIVSMDYWGQGTLVTVSS
VL: not shown
B17: H1H15231P2 (antibody, V domains shown)
VH: QLQLQESGPGLVKPSETLSLTCTVSGGSISSNTYYWGWIRQPPGKGLEWIGTIYYTGNTYYKSSLKSRVTISVDTSRNQFSLKLTSVTAADTAVYYCARQFADLNYVDYWGQGTLVTVSS
VL: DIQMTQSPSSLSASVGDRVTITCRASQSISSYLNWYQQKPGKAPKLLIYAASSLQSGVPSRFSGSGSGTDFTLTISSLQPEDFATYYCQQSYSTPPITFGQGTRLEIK
B18: H1H15215P (antibody, V domains shown)
VH: EVQLVESGGGLVQPGGSLRLSCAASGFTFSTYGMSWVRQAPGKGLEWVSTIIGSGYNTYYSDSVKGRFTMSRDNSKSTLYLQMNSLRAEDTAVYYCTKEGPIIGTTNWGQGTLVTVSS
VL: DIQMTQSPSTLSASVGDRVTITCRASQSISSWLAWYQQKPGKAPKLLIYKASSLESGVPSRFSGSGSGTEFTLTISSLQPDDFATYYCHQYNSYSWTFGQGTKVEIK

How the values were obtained:
[1] = biological target: T1, MERS RBD-hFc (MERS-CoV (isolate EMC/2012)); experiment: SPR Biacore, captured mAb, 37 C
[2] = biological target: T1, MERS RBD-hFc; experiment: SPR Biacore, captured mAb, 25 C
[3] = biological target: T1, MERS RBD-hFc; experiment: SPR (Biacore), hybridoma supernatant antibody captured, MERS RBD-hFc as analyte
[4] = biological target: T1, MERS RBD-hFc; experiment: ELISA on coated MERS RBD-hFc, hybridoma supernatant 1:50, absorbance at 450 nm

Row | Binder | Kd [1] | koff [1] | kon [1] | t1/2 [1] | Kd [2] | koff [2] | kon [2] | t1/2 [2] | Kd [3] | t½ [3] | ELISA Binding [4]
1 | B1 | 1.44 nM | 0.000629 s⁻¹ | 436000 M⁻¹ s⁻¹ | 18 min | 0.348 nM | 0.000124 s⁻¹ | 356000 M⁻¹ s⁻¹ | 93 min | – | – | –
2 | B2 | 0.797 nM | 0.000409 s⁻¹ | 514000 M⁻¹ s⁻¹ | 28 min | 0.274 nM | 0.00012 s⁻¹ | 439000 M⁻¹ s⁻¹ | 96 min | – | – | –
3 | B3 | 0.671 nM | 0.00218 s⁻¹ | 3.24e+06 M⁻¹ s⁻¹ | 5 min | 0.346 nM | 0.00091 s⁻¹ | 2.63e+06 M⁻¹ s⁻¹ | 13 min | 1.72 nM | 11.1 min | 2.68
4 | B4 | 0.127 nM | 4.74e-05 s⁻¹ | 374000 M⁻¹ s⁻¹ | 244 min | 0.229 nM | 4.56e-05 s⁻¹ | 199000 M⁻¹ s⁻¹ | 253 min | – | – | –
5 | B5 | 1.01 nM | 0.000531 s⁻¹ | 525000 M⁻¹ s⁻¹ | 22 min | 0.553 nM | 0.000243 s⁻¹ | 439000 M⁻¹ s⁻¹ | 48 min | – | – | –
6 | B6 | 13.2 nM | 0.00657 s⁻¹ | 497000 M⁻¹ s⁻¹ | 1.8 min | 18.5 nM | 0.00525 s⁻¹ | 283000 M⁻¹ s⁻¹ | 2.2 min | 6.53 nM | 7.4 min | 2.75
7 | B7 | 0.288 nM | 0.000127 s⁻¹ | 442000 M⁻¹ s⁻¹ | 91 min | 0.227 nM | 7.91e-05 s⁻¹ | 349000 M⁻¹ s⁻¹ | 146 min | – | – | –
8 | B8 | 0.167 nM | 0.000265 s⁻¹ | 1.59e+06 M⁻¹ s⁻¹ | 44 min | 0.0825 nM | 0.000122 s⁻¹ | 1.48e+06 M⁻¹ s⁻¹ | 95 min | – | – | –
9 | B9 | 0.975 nM | 0.000464 s⁻¹ | 476000 M⁻¹ s⁻¹ | 25 min | 0.418 nM | 0.000185 s⁻¹ | 443000 M⁻¹ s⁻¹ | 63 min | – | – | –
10 | B10 | 0.519 nM | 0.00113 s⁻¹ | 2.17e+06 M⁻¹ s⁻¹ | 10 min | 0.506 nM | 0.000873 s⁻¹ | 1.72e+06 M⁻¹ s⁻¹ | 13 min | 2.05 nM | 13.5 min | 2.42
11 | B11 | 1.23 nM | 0.000701 s⁻¹ | 568000 M⁻¹ s⁻¹ | 16 min | 0.39 nM | 0.000192 s⁻¹ | 493000 M⁻¹ s⁻¹ | 60 min | – | – | –
12 | B12 | 0.213 nM | 0.000543 s⁻¹ | 2.55e+06 M⁻¹ s⁻¹ | 21 min | 0.39 nM | 0.000818 s⁻¹ | 2.1e+06 M⁻¹ s⁻¹ | 14 min | 2.77 nM | 10.4 min | 2.54
13 | B13 | 0.316 nM | 0.000634 s⁻¹ | 2e+06 M⁻¹ s⁻¹ | 18 min | 0.443 nM | 0.000733 s⁻¹ | 1.65e+06 M⁻¹ s⁻¹ | 16 min | 2.72 nM | 9.5 min | 2.52
14 | B14 | 0.651 nM | 0.00114 s⁻¹ | 1.75e+06 M⁻¹ s⁻¹ | 10 min | 0.776 nM | 0.000605 s⁻¹ | 779000 M⁻¹ s⁻¹ | 19 min | 1.79 nM | 17.3 min | 2.04
15 | B15 | 0.645 nM | 0.000323 s⁻¹ | 501000 M⁻¹ s⁻¹ | 36 min | 0.273 nM | 0.000121 s⁻¹ | 443000 M⁻¹ s⁻¹ | 95 min | – | – | –
16 | B16 | 0.194 nM | 0.00016 s⁻¹ | 827000 M⁻¹ s⁻¹ | 72 min | 0.0775 nM | 8.72e-05 s⁻¹ | 1.13e+06 M⁻¹ s⁻¹ | 133 min | – | – | –
17 | B17 | 0.139 nM | 9.19e-05 s⁻¹ | 659000 M⁻¹ s⁻¹ | 126 min | 0.116 nM | 7.44e-05 s⁻¹ | 639000 M⁻¹ s⁻¹ | 155 min | – | – | –
18 | B18 | 1.68 nM | 0.000233 s⁻¹ | 138000 M⁻¹ s⁻¹ | 50 min | 0.671 nM | 9.67e-05 s⁻¹ | 144000 M⁻¹ s⁻¹ | 119 min | – | – | –
